This passage reports EC50 of ethylene production in A. thaliana Col-0 leaves results from paper doi:10.1101/2020.12.10.418392.

The experiment concerns the target T1, RLP42-GFP (A. thaliana) (UniProt Q9LJS0).
T1 sequence: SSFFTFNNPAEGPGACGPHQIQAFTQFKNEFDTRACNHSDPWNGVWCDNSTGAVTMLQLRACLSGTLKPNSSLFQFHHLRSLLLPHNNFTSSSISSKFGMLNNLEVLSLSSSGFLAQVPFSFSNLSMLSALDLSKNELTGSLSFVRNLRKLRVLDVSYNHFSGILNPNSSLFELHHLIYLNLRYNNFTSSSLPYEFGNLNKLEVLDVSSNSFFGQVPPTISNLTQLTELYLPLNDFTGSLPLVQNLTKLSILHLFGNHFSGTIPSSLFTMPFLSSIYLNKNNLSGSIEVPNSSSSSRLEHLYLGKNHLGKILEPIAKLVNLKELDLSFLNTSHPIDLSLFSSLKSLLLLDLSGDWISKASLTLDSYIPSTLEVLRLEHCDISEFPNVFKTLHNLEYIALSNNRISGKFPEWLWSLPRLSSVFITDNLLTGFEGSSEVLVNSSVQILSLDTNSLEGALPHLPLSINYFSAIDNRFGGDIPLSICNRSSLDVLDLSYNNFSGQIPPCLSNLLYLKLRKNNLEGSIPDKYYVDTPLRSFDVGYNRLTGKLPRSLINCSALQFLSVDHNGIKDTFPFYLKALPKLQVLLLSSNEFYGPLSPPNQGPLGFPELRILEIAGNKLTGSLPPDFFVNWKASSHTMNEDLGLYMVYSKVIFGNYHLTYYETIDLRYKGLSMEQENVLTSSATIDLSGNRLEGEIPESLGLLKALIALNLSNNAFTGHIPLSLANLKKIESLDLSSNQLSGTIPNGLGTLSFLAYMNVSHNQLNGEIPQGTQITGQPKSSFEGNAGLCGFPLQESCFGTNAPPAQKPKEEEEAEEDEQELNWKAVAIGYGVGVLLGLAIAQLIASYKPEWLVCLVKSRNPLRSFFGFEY

The molecule AKNTDGFDL [Oom-pg9] showed an EC50 of ethylene production in A. thaliana Col-0 leaves of 1300 nM.
